Laboratory results as given in patent US20190194317A1 (FARON PHARMACEUTICALS, published 2019).

B1: chimeric 3-372 IgG4 (antibody, V domains shown)
VH: QVTLKESGPGILQPSQTLSLTCSFSGFSLNTSGMGIGWIRQPSGKGLEWLAHIWWDDDKRYNPALKSRLTISKDTSSNQVFLKIASVDTADTATYYCARHYGYDPYYAMDYWGQGTSVTVSS
VL: QIVLTQSPAIMSASLGERVTMTCTASSSVSSSYLHWYQQRPGSSPKLCIYRTSNLASGVPPRFSGSGSGTSYSLTISSMEAEDAATYYCHQYHRSPPTFGGGTKLEIN
notes: Expressed in NSO cells; also called CH/CK; chimera
B2: mouse monoclonal antibody 3-372 (DSM ACC2520) (antibody, V domains shown)
VH: B1 VH
VL: B1 VL
notes: Mouse hybridoma antibody with kappa light chain

Experiments:
[1] = target: T1, CLEVER-1 coated on the ELISA plate (competition ELISA, Examples 5 and 10) (human, UniProt Q9NY15 26-1027, limits assumed); assay: competition ELISA on coated CLEVER-1 against biotinylated mouse 3-372
T1 construct: Coated at 1 ug/ml in PBS; also called human Clever-1
T1 sequence (looked up): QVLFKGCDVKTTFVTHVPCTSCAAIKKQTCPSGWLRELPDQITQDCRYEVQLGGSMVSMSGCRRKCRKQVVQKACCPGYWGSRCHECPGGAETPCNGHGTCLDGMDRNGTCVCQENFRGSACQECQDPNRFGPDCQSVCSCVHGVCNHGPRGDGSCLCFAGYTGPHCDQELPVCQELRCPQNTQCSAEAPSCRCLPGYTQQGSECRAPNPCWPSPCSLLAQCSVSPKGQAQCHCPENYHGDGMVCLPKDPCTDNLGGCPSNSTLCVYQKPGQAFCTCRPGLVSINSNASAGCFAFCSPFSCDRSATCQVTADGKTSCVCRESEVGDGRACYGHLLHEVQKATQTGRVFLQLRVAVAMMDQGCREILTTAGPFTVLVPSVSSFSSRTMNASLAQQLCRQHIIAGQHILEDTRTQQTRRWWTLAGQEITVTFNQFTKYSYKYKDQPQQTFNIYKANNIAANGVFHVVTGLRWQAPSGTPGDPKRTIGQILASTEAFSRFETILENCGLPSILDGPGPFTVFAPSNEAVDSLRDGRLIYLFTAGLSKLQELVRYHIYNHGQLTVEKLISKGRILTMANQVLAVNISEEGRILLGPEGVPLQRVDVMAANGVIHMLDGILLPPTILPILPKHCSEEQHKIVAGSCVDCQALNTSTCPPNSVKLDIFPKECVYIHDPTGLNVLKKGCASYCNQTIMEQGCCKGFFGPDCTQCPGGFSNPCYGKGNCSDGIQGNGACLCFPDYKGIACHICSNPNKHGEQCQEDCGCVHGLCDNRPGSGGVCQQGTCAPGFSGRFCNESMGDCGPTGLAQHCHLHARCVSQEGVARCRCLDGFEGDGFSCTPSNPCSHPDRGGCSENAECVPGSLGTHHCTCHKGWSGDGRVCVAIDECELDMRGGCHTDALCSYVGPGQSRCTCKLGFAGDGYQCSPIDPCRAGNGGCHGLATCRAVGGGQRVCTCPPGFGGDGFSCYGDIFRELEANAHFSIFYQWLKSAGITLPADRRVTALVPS
Method: These were incubated for 1 hour at room temperature on a 96 well Immulon maxisorp plate (Fisher Cat. No. DIS-971-030J) precoated with 1 μg/ml CLEVER-1. […] The reaction was stopped with 3M HCl, absorbance read at 450 nm on a Dynex Technologies MRX TC II plate reader and the binding curves plotted. IC50 values for each antibody were calculated and these were normalized to the IC50 of the chimera which was included on each respective ELISA plate.

[2] = target: T1, CLEVER-1 coated on the ELISA plate …; assay: competition ELISA on coated CLEVER-1 against 0.6 µg/ml biotinylated mouse 3-372
Method: Briefly, a Nunc Immulon 96 well maxisorp plate (Fisher Cat. No. DIS-971-030J) was coated with CLEVER-1 at 1 μg/ml in PBS (100 μl/well) overnight at 4° C., with an additional 1 hour at 37° C. the following morning. Wells were washed with PBS/0.1% Tween 20 and then blocked for 45 min at room temperature, in 1% Marvel/1% BSA/PBS.
The blocked ELISA plate was washed as before and 100 μl of the premixed antibodies added to each well. The plate was incubated for 1 hour at room temperature.
This confirms that the correct variable region sequences have been identified and expressed in the chimeric antibody.

Row | Binder | Relative IC50 [1] | IC50 [2]
1 | B1 | 1 relative to the chimera on the same plate | 0.89 µg/mL
2 | B2 | – | 0.77 µg/mL
